Laboratory results taken from PMC7181697.

Key:
[1] = target: REV7^W171A-SHLD3(1–82) (human) (UniProt Q9UI95); test: ITC; method not named in the sentence (Supplementary Fig. 7e, f); ITC is the only method for affinities that the methods describe
[2] = target: REV7^Y63A-SHLD3(1–82) (human) (UniProt Q9UI95); test: as above
REV7^Y63A-SHLD3(1–82) (human), sequence (Q9UI95 whole entry Y63A, chain 1 of 2): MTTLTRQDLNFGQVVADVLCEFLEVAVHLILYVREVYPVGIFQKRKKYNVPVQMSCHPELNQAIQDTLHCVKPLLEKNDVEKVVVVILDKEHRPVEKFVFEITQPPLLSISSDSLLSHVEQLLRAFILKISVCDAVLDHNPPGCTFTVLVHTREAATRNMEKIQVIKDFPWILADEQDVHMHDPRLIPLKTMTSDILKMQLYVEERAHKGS
REV7^Y63A-SHLD3(1–82) (human), sequence (Q6ZNX1 1-82, chain 2 of 2, further chain): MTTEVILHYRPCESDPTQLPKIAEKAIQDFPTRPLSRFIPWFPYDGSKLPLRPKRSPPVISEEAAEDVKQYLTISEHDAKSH

REV7^W171A-SHLD3(1–82) (human), sequence (Q9UI95 whole entry W171A, chain 1 of 2): as the sequence (Q9UI95 whole entry Y63A, chain 1 of 2) above, with A63Y, W171A counted along it
REV7^W171A-SHLD3(1–82) (human), sequence (Q6ZNX1 1-82, chain 2 of 2, further chain): as the sequence (Q6ZNX1 1-82, chain 2 of 2, further chain) above

Kd [1]: 1.1 µM
Kd [2]: 37 µM
B1: MBP-REV3(1847–2021) (domain or fragment)
chain: MLTPTPDSSPRSTSSPSQSKNGSFTPRTANILKPLMSPPSREEIMATLLDHDLSETIYQEPFCSNPSDVPEKPREIGGRLLMVETRLANDLAEFEGDFSLEGLRLWKTAFSAMTQNPRPGSPLRSGQGVVNKGSSNSPKMVEDKKIVIMPCKCAPSRQLVQVWLQAKEEYERSKK
